T1: GST-TA16485D (TaAP2.me3 AP2 domain) (Theileria annulata (strain Ankara, …, UniProt Q4UIX2))
T1 sequence: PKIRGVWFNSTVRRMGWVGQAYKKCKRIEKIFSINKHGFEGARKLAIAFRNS

T2: GST-TA12015D (TaAP2.me2 AP2 domain) (Theileria annulata (strain Ankara, …, UniProt Q4UDT1))
T2 sequence: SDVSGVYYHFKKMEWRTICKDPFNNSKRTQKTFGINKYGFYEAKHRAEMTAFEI

B1: Bio-GTGTAC (dsDNA)
DNA 1: AATATTATAATAGTCGTAGCCATCAATGTGTACACATGGTAATATAGATTTTCGTTTATATT
DNA 2: AATATAAACGAAAATCTATATTACCATGTGTACACATTGATGGCTACGACTATTATAATATT
B2: Bio-GTGTAC-MUT (dsDNA)
DNA 1: AATATTATAATAGTCGTAGCCATCAATATATAAAAATGGTAATATAGATTTTCGTTTATATT
DNA 2: AATATAAACGAAAATCTATATTACCATTTTTATATATTGATGGCTACGACTATTATAATATT
B3: Bio-TCTATA / C-box probe (dsDNA)
DNA 1: ATTGTTAATTCCCCATCCAGATCTATAAAA
DNA 2: TTTTATAGATCTGGATGGGGAATTAACAAT
B4: Bio(A)CACAC(A)-MUT (dsDNA)
DNA 1: GATATAGAATTATGCAGAATAT
DNA 2: ATATTCTGCATAATTCTATATC
B5: Bio-2x(A)CACAC(A) (dsDNA)
DNA 1: GATACACACTTATGCACACACA
DNA 2: TGTGTGTGCATAAGTGTGTATC

Tests used:
Conditions in all cases: protein: recombinant; tags: N-terminal GST (pGEX5x-2); label: 5' biotin on strand 1; blunt
[1] = target: GST-TA13515D (TaAP2.g AP2 domain) (Theileria annulata (strain Ankara, …, UniProt Q4UEK3)); experiment: EMSA; LightShift chemiluminescent EMSA kit components plus 1 ul 50% glycerol and 1 ul 1% NP40, about 0.7 ug GST fusion protein, 20 fmol biotinylated probe; competitor preincubation on ice; 4% polyacrylamide gel, 100 V, 4 C; pH and salt of binding not stated (oligo annealing in 20 mM Tris-HCl pH 7.6, 50 mM NaCl)
[2] = target: T1, GST-TA16485D (TaAP2.me3 AP2 domain); experiment: as above
[3] = target: T2, GST-TA12015D (TaAP2.me2 AP2 domain); experiment: EMSA; 0.6-1.6 ug protein; LightShift chemiluminescent EMSA kit components plus 1 ul 50% glycerol and 1 ul 1% NP40, about 0.7 ug GST fusion protein, 20 fmol biotinylated probe; competitor preincubation on ice; 4% polyacrylamide gel, 100 V, 4 C; pH and salt of binding not stated (oligo annealing in 20 mM Tris-HCl pH 7.6, 50 mM NaCl)
[4] = target: GST-TA11145D (TaAP2.me1 AP2 domain) (Theileria annulata (strain Ankara, …, UniProt Q4U8H9)); experiment: EMSA; LightShift chemiluminescent EMSA kit components plus 1 ul 50% glycerol and 1 ul 1% NP40, about 0.7 ug GST fusion protein, 20 fmol biotinylated probe; competitor preincubation on ice; 4% polyacrylamide gel, 100 V, 4 C; pH and salt of binding not stated (oligo annealing in 20 mM Tris-HCl pH 7.6, 50 mM NaCl)

| Binder | binding result [1] | binding result [4] | further results |
| --- | --- | --- | --- |
| B1 | binds | – | – |
| B2 | no binding | – | – |
| B3 | – | – | binding result [2]: binds; binding result [3]: no binding |
| B4 | – | no binding | – |
| B5 | – | binds | – |

Source: paper PMC4537280, “ApiAP2 Factors as Candidate Regulators of Stochastic Commitment to Merozoite Production in Theileria annulata”
